We go through 21 molecules from paper PMC3219716, “Indirect DNA Readout by an H-NS Related Protein: Structure of the DNA Complex of the C-Terminal Domain of Ler”.

One may read the Kd as the free concentration of one partner at which half of the binding sites on the other are occupied at equilibrium, for simple one-to-one binding.

For series [1], the target named is T1, CT-Ler (Escherichia coli EHEC O157:H7, UniProt Q7DB51 70-116).
T1 chain: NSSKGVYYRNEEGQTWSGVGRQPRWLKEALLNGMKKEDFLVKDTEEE
The series is described as follows: fluorescence anisotropy; among highest affinities; Anisotropy: 40 mM HEPES pH 7.5, 60 mM K-glutamate, 0.01% NaN3, 20 C; EMSA: 15 mM Na-phosphate pH 7.5, 100 mM NaCl, 0.01% NaN3, room temperature; NMR structure:
The note with it: protein: recombinant; tags: N-terminal His6 (pHAT2); blunt. On the technique in general: Polarisation of emitted light reports the rotation of a fluorescent probe.

Series [2] concerns the target T1, CT-Ler. The series is described as follows: fluorescence anisotropy; Anisotropy: 40 mM HEPES pH 7.5, 60 mM K-glutamate, 0.01% NaN3, 20 C; EMSA: 15 mM Na-phosphate pH 7.5, 100 mM NaCl, 0.01% NaN3, room temperature; NMR structure:
The note with it: protein: recombinant, tags: N-terminal His6 (pHAT2), blunt.

For series [3], the target named is T1, CT-Ler. The series is described as follows: fluorescence anisotropy; deviates from 1:1 model, multiple binding suggested; Anisotropy: 40 mM HEPES pH 7.5, 60 mM K-glutamate, 0.01% NaN3, 20 C; EMSA: 15 mM Na-phosphate pH 7.5, 100 mM NaCl, 0.01% NaN3, room temperature; NMR structure:
The note with it: protein: recombinant; tags: N-terminal His6 (pHAT2); blunt.

For the next series, the target named is T2, CT-H-NS (UniProt P0ACF8 95-137).
T2 chain: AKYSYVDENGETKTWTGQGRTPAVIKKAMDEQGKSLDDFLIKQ
Description: NMR titration (1H-15N HSQC); Anisotropy: 40 mM HEPES pH 7.5, 60 mM K-glutamate, 0.01% NaN3, 20 C; EMSA: 15 mM Na-phosphate pH 7.5, 100 mM NaCl, 0.01% NaN3, room temperature; NMR structure:
The note with it: protein: recombinant; tags: N-terminal His6 (pHAT2); blunt, self-complementary. (Mobility shift assays separate free from complexed probe on a gel.)

The target of a further series is T3, CT-Ler R90Q (Escherichia coli EHEC O157:H7, UniProt Q7DB51 70-116, R90Q).
T3 chain: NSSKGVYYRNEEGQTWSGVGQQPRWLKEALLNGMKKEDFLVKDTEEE
The series is described as follows: fluorescence anisotropy; Anisotropy: 40 mM HEPES pH 7.5, 60 mM K-glutamate, 0.01% NaN3, 20 C; EMSA: 15 mM Na-phosphate pH 7.5, 100 mM NaCl, 0.01% NaN3, room temperature; NMR structure:
The note with it: protein: recombinant; tags: N-terminal His6 (pHAT2); blunt.

The target of another series is T4, CT-Ler R90G (Escherichia coli EHEC O157:H7, UniProt Q7DB51 70-116, R90G).
T4 chain: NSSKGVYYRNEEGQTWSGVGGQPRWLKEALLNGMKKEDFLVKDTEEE
The description is as above. The note with it: protein: recombinant; tags: N-terminal His6 (pHAT2); blunt.

B1: LeeF (dsDNA)
DNA 1: TTTCTTTTTTTATTGAAATAATTGATAATA
DNA 2: TATTATCAATTATTTCAATAAAAAAAGAAA
For the molecule B1, in the series with CT-Ler [1], the binding result is reported as “binds”.

B2: LeeH T5C (dsDNA)
DNA 1: GCGACAATTGATACC
DNA 2: GGTATCAATTGTCGC
In the case of B2, the Kd in the series with CT-Ler [2] came out at 1380 ± 110 nM.

B3: LeeFG (dsDNA)
DNA 1: AAATAATTGATAATA
DNA 2: TATTATCAATTATTT
Regarding B3, in the series with CT-Ler [3], the binding result is on record as “binds”.

B4: LeeH T8C (dsDNA)
DNA 1: GCGATAACTGATACC
DNA 2: GGTATCAGTTATCGC
In the case of B4, the Kd with CT-Ler [2] was determined as 1700 ± 130 nM.

B5: TTAA 10-mer (dsDNA)
DNA 1: CGCTTAAGCG
DNA 2: CGCTTAAGCG
As for B5, in the series with CT-Ler [2] (self-complementary), the Kd is 22800 ± 2990 nM.

B6: LeeH A11G (dsDNA)
DNA 1: GCGATAATTGGTACC
DNA 2: GGTACCAATTATCGC
Regarding B6, the Kd with CT-Ler [2] was 1430 ± 40 nM.

B7: TATA 10-mer (dsDNA)
DNA 1: CGCTATAGCG
DNA 2: CGCTATAGCG
As to B7, the Kd with CT-H-NS is approximately 102000 nM; in the series with CT-Ler [2] (self-complementary), 16600 ± 2200 nM.

B8: AATTC 10-mer (dsDNA)
DNA 1: CGGAATTCCG
DNA 2: CGGAATTCCG
As for B8, the Kd with CT-Ler [2] (self-complementary) is 4140 ± 310 nM.

B9: LeeH T12C (dsDNA)
DNA 1: GCGATAATTGACACC
DNA 2: GGTGTCAATTATCGC
Turning to B9, the Kd in the series with CT-Ler [2] is 1450 ± 100 nM.

B10: LeeH A4G (dsDNA)
DNA 1: GCGGTAATTGATACC
DNA 2: GGTATCAATTACCGC
Regarding B10, the Kd with CT-Ler [2] is 1060 ± 80 nM.

B11: LeeG (dsDNA)
DNA 1: AAATAATTGATAATAATGTTTTTGTTACGT
DNA 2: ACGTAACAAAAACATTATTATCAATTATTT
Turning to B11, the binding result in the series with CT-Ler [1] is listed as “binds”.

B12: LeeH A13G (dsDNA)
DNA 1: GCGATAATTGATGCC
DNA 2: GGCATCAATTATCGC
Turning to B12, the Kd with CT-Ler [2] came out at 1480 ± 90 nM.

B13: LeeH G10A (dsDNA)
DNA 1: GCGATAATTAATACC
DNA 2: GGTATTAATTATCGC
On to B13, for which the Kd with CT-Ler [2] stood at 2310 ± 70 nM.

B14: AAAA 10-mer (dsDNA)
DNA 1: CGCAAAAGCG
DNA 2: CGCTTTTGCG
Regarding B14, in the series with CT-Ler [2], the Kd is 8070 ± 220 nM.

B15: AATT 10-mer (dsDNA)
DNA 1: CGCAATTGCG
DNA 2: CGCAATTGCG
As for B15, the Kd in the series with CT-H-NS is approximately 41000 nM; with CT-Ler [2] (self-complementary) it was 3450 ± 560 nM.

B16: LeeH (WT) (dsDNA)
DNA 1: GCGATAATTGATACC
DNA 2: GGTATCAATTATCGC
B16: the binding result in the series with CT-Ler R90Q and with CT-Ler R90G was “no binding” throughout. Also, in the series with CT-Ler [2], the Kd was 1100 ± 50 nM.

B17: LeeH A7G (dsDNA)
DNA 1: GCGATAGTTGATACC
DNA 2: GGTATCAACTATCGC
As to B17, the Kd with CT-Ler [2] was 2710 ± 320 nM.

B18: LeeH T9C (dsDNA)
DNA 1: GCGATAATCGATACC
DNA 2: GGTATCGATTATCGC
Take B18: the Kd in the series with CT-Ler [2] came to 1360 ± 80 nM.

B19: AATA 10-mer (dsDNA)
DNA 1: CGCAATAGCG
DNA 2: CGCTATTGCG
For B19, the Kd in the series with CT-Ler [2] was 11500 ± 960 nM.

B20: AAAT 10-mer (dsDNA)
DNA 1: CGCAAATGCG
DNA 2: CGCATTTGCG
B20: the Kd with CT-Ler [2] is 6170 ± 360 nM.

B21: LeeH A6G (dsDNA)
DNA 1: GCGATGATTGATACC
DNA 2: GGTATCAATCATCGC
In the case of B21, the Kd in the series with CT-Ler [2] stood at 2480 ± 200 nM.
